The values that follow come from PMC8481266, “Structural and functional characterization of the bacterial biofilm activator RemA” (Nature Communications, 2021).

Where “and” joins values, the source holds several entries; their conditions need not be identical. Equal values may be shown once.

Data set [1] has as its target (Gt)RemA, RemA from Geobacillus thermodenitrificans, wild type, with N-terminal His-tag (Geobacillus thermodenitrificans NG-80). Briefly: crystal structure; sitting-drop crystallisation at 20 °C; X-ray data at ESRF; wild type by Se-SAD, variants by molecular replacement.
For data set [2] the target is unchanged. Described as above. This is another data set of the same source.
For data set [3] the target is unchanged. Briefly: SEC-MALS; analytical SEC-MALS of the two major SEC peaks; (Gt)RemA at 500 µM (Fig. 1b); R18W variant in Supplementary Fig. 1d.
Data set [4] has as its target (Gt)RemA-R18W (Geobacillus thermodenitrificans NG-80). As to the kind of experiment: crystal structure; sitting-drop crystallisation at 20 °C; X-ray data at ESRF; wild type by Se-SAD, variants by molecular replacement.
For data set [5] the target is unchanged. Briefly: SEC-MALS; analytical SEC-MALS of the two major SEC peaks; (Gt)RemA at 500 µM (Fig. 1b); R18W variant in Supplementary Fig. 1d.
For data set [6], the target named is (Gt)RemA-R51A/R53A (Geobacillus thermodenitrificans NG-80). As to the kind of experiment: crystal structure; sitting-drop crystallisation at 20 °C; X-ray data at ESRF; wild type by Se-SAD, variants by molecular replacement.
Data set [7] concerns the target (His)-GB1-tagged (Gt)RemA (Geobacillus thermodenitrificans NG-80). As to the kind of experiment: SEC; SEC analysis of the (His)-GB1 constructs of (Bs)RemA and (Gt)RemA (Supplementary Figs. 2a, b). For orientation: In gel filtration, larger molecules generally elute earlier.
The target in data set [8] is T1, (Gt)RemA wild type, His-tagged (Geobacillus thermodenitrificans NG-80) (UniProt A4IM41).
T1 sequence: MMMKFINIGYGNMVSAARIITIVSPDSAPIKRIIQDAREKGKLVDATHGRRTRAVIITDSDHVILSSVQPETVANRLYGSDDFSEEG
As to the kind of experiment: EMSA. Conditions: 20 mM HEPES pH 8.0, 1000 mM NaCl, 20 mM MgCl2, 20 mM KCl, 0.3 ug/ml BSA, 25 ug/ml herring sperm DNA, 10% glycerol, 0.25 mg/ml Orange-G; 1 pmol DNA in 14.5 ul …. (A gel shift assay detects complexes by their altered migration in electrophoresis.)

Data set [9] has as its target T2, (Gt)RemA-R50A R50A (Geobacillus thermodenitrificans NG-80) (UniProt A4IM41).
T2 sequence: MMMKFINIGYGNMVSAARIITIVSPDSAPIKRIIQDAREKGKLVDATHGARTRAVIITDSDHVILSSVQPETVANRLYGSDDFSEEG
As to the kind of experiment: EMSA. Conditions: 20 mM HEPES pH 8.0, 1000 mM NaCl, 20 mM MgCl2, 20 mM KCl, 0.3 ug/ml BSA, 25 ug/ml herring sperm DNA, 10% glycerol, 0.25 mg/ml Orange-G; 1 pmol DNA in 14.5 ul ….

Data set [10] deals with T3, (Gt)RemA wild type, tag-free (Geobacillus thermodenitrificans NG-80) (UniProt A4IM41).
T3 sequence: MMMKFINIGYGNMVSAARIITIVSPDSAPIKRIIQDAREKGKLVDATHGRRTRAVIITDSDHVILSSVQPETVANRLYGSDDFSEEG
Briefly: EMSA. Conditions: 20 mM HEPES pH 8.0, 1000 mM NaCl, 20 mM MgCl2, 20 mM KCl, 0.3 ug/ml BSA, 25 ug/ml herring sperm DNA, 10% glycerol, 0.25 mg/ml Orange-G; 1 pmol DNA in 14.5 ul ….

Data set [11] has as its target T4, (Gt)RemA-R18W R18W (Geobacillus thermodenitrificans NG-80) (UniProt A4IM41).
T4 sequence: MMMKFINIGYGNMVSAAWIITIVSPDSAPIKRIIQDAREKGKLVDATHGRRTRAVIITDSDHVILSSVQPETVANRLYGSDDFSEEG
Briefly: EMSA. Conditions: 20 mM HEPES pH 8.0, 1000 mM NaCl, 20 mM MgCl2, 20 mM KCl, 0.3 ug/ml BSA, 25 ug/ml herring sperm DNA, 10% glycerol, 0.25 mg/ml Orange-G; 1 pmol DNA in 14.5 ul ….

For data set [12], the target named is T5, (Gt)RemA-R51A R51A (Geobacillus thermodenitrificans NG-80) (UniProt A4IM41).
T5 sequence: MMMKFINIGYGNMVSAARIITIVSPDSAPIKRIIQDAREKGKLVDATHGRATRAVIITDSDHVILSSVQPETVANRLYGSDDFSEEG
As to the kind of experiment: EMSA. The conditions noted are these: 20 mM HEPES pH 8.0, 1000 mM NaCl, 20 mM MgCl2, 20 mM KCl, 0.3 ug/ml BSA, 25 ug/ml herring sperm DNA, 10% glycerol, 0.25 mg/ml Orange-G; 1 pmol DNA in 14.5 ul ….

Data set [13] concerns the molecule itself. Briefly: SEC; SEC analysis of the (His)-GB1 constructs of (Bs)RemA and (Gt)RemA (Supplementary Figs. 2a, b).

The stoichiometry N is a count of units in the complex or per binding partner. For the molecule “(Gt)RemA, RemA from Geobacillus thermodenitrificans, wild type, with N-terminal His-tag (natural protein)”, the stoichiometry N was 8 in data set [1]; 16 in data set [2]; 16 and 8 in data set [3].

In the case of (Gt)RemA-R18W (natural protein), the stoichiometry N is 7 in data set [4]; 14 and 7 in [5].

The molecule (Gt)RemA-R51A/R53A (natural protein) yielded a stoichiometry N in [6] of 8.

For “(His)-GB1-tagged (Gt)RemA (natural protein)”, the stoichiometry N in data set [7] came out at 8.

Take “CTCCTCTATTCCTGTCGTTATTTCGTTCATTATAAGGAATTTTTCGTTCTTTATAAAATTTAAAATAATAAGGGAAGTGCAGTAAATTAGAGGAAAATCATGATTTTGTTCTCCAAAGAGAACTTATTGGCTTATTTTGCAATTTTTAAATAATAACGTTTTCTTTTATAATCCAATCATTAACAGAAAGGGGCGCGGGAAGCCAGCCGCGGGAAGGCTGAAGGCTATGAATACATGAATGAGAATATGAGTTTCAAAGAATTATATGCGATTGTCAGACACAGATTCG (double strand) [PepsA 289 bp fragment]”: the binding result in data set [8] is reported as “binds”; in data set [9] it was “no binding”; in data set [10] it was “binds”; in data set [11], “binds”; in data set [12], “no binding”.

B1: (His)-GB1-tagged (Bs)RemA (natural protein, B. subtilis strain 3610, UniProt Q7WY72 1-89, looked up)
chain: MTIKLINIGFGNIISANRMISIVSPESAPIKRMIQDARDRGMLIDATYGRRTRAVVVMDSDHIILSAVQPETVAHRLSVKEEIMDEGQG
notes: RemA of Bacillus subtilis strain 3610; MW 9.6 kDa; A TEV cleavage site stands between the solubility tag and RemA; removal of the tag led to precipitation; also called His-GB1-(Bs)RemA; (Bs)RemA (His)-GB1 construct; not shown: His, N-terminal, kept
B1: the “stoichiometry N” value in data set [13] was 8.
